Measured values published in patent US20260070974A1 (NONA BIOSCIENCES SUZHOU, published 2026).
Values joined by “and” are separate entries in the source; they are usually repeats but may differ in a detail not shown here. Identical values can stand only once.

B1: PR300066 (Tab) (antibody, human IgG1, kappa, V domains shown)
VH: QVQLQQPGAELVKPGASVKMSCKASGYTFTSYWITWVIQRPGQGLEWIGDIYCGSDTMHYNEKFKNKATLTVDTSSSTAYMQLSSLTSEDSAVYYCARWWDYGSSYDYFDYWGQGTTLTVSS
VL: DIKMTQSPSSMYASLGERVTITCKASQDINSYLSWFQQKPGKSPKTLIYRANRLVDGVPSRFSGSGSGQDYSLTISSLEYEDMGIYYCLQYDEFPYTFGGGTKLEIKR
notes: variable region from clone 5G12 of WO 2018/057735A1, on human IgG1/kappa constant regions; also called 5G12
B2: PR301286 (antibody, human IgG1, kappa, V domains shown)
VH: QVQLVESGGGVVQPGKSLRLSCAASGFTFSSYGMHWVRQAPGKGLEWVAVIWIDGSNRYYAASVKGRFTISRDNSKNTLYLQMNSLRAEDTAVYYCTRGYGDYAYVMDVWGQGASVTVSS
VL: DIVMTQSPLSLPVTPGEPASISCRSSQSLLPGNGYNYLDWYLQKPGQSPQLLIYLGSNRASGVPDRFSGSGSGTDFTLKISRVEAEDVGIYYCMQALQSPLTFGGGTKVEIKR
notes: Parent of the PTM variants PR301286-1, -3, -5, -6, -7
B3: PR301289 (antibody, human IgG1, kappa, V domains shown)
VH: QVQLVQSGAEVKKPGASVKVSCRASGYTFTSYDINWVRQATGQGLEWMGWMNPHSGDTGYAQNFQGRVTMTWNTSISTAYMELSSLRSEDTAVYYCARRRVGVYYYGMDVWGQGTTVTVSS
VL: ENVLTQSPGTLSLSPGERATLSCRASQSVSSSYFGWYQQKPGQAPRLLIYGASSRATGIPDRFSGSGSGTDFTLTISRLEPEDFAVYYCQQYGSSPITFGQGTRLEIKR
notes: Parent of the PTM variants PR301289-1 and -2
B4: PR301285 (antibody, human IgG1, kappa, V domains shown)
VH: QVQLQESGPGLVKPSETLSLTCTVSGGSMISYYWSWLRQPPGKGLEWIGYIYYSGNTNYNPSLKSRITIAVDTSKNQFSLKLNSVTAADTAVYYCARERELHPYYFDYWGQGTLVTVSS
VL: DIQLTQSPSFLSASVGDRVTITCRASQGIDNYLAWYQQKPGKAPKVLIYAASTLQSGVPSRFSGSGSGTEFTLTISSLQPEDFATYYCQQLNSYPLTFGGGTKVEIKR

Biological target: T1, cynomolgus monkey Siglec-15 on CHO-K1/cynomolgus monkey Siglec-15 cells (cynomolgus monkey, UniProt Q6ZMC9 20-328 (human entry))
T1 chain: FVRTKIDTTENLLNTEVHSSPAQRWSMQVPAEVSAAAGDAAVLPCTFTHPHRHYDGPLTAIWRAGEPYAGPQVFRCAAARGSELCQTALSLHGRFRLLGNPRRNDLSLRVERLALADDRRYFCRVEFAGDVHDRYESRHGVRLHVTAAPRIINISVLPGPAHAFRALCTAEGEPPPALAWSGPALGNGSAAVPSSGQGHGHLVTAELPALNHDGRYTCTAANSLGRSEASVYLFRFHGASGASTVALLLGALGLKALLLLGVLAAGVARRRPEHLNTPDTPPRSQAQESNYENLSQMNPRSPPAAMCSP
Assay: flow cytometry on CHO-K1/cynomolgus monkey Siglec-15 cells
Description: cDNAs encoding cynomolgus monkey Siglec-15 (the amino acid sequence of which is set forth in SEQ ID NO: 155) were obtained by gene synthesis and cloned into the expression vector pcDNA3.1, and then the expression vector was transfected into CHO-K1 cells to construct CHO-K1/cynomolgus monkey Siglec-15 cells expressing cynomolgus monkey Siglec-15. CHO-K1/cynomolgus monkey Siglec-15 cells were adjusted to a density of 1×10⁶/mL with PBS, and the cell suspension was added to a 96-well V-bottom plate at 100 µL/well. The 96-well V-bottom plate was centrifuged at 1000 rpm for 5 min and washed once with PBS+2% FBS. The cells were resuspended in 100 μL of antibody diluted in a gradient (5-fold dilution, starting concentration: 500 nM) and incubated at 4° C. for 1 h, and PR300066 and hIgG1 were used as positive control and negative control, respectively. After 1 h, the cells were washed twice with PBS+2% FBS. The cells were incubated with 100 μL of Alexa Fluor 488 goat anti-human IgG (Jackson, Cat #: 109-545-098) at 4° C. for 1 h in the dark and then washed twice with PBS+2% FBS. The cells were then resuspended in 200 μL of PBS+2% FBS. The fluorescence intensity of the cells was analyzed using a BD FACS Canto™ II flow cytometer.

In the case of B1, the EC50 is reported as 1.5 nM and 2.19 nM.

First: B2
Second: B3
The EC50 of the first is 2.5-fold higher: 3.39 nM for the first, 1.36 nM for the second. The second is the more potent here.

B4 showed an EC50 of 0.889 nM.

Going from B2 to B3, the “Maximum (MFI)” value falls from 5860 MFI to 5420 MFI.

B4 was tested, and the “Maximum (MFI)” value was 5660 MFI.

Biological target: T2, cynomolgus monkey Siglec-15-his protein (Acrobiosystems, Cat #: SG5-C52H6) (cynomolgus monkey, UniProt Q6ZMC9 20-263 (human entry))
T2 construct: Bought protein; also called cynomolgus monkey Siglec-15 protein; not shown: his tag
T2 chain: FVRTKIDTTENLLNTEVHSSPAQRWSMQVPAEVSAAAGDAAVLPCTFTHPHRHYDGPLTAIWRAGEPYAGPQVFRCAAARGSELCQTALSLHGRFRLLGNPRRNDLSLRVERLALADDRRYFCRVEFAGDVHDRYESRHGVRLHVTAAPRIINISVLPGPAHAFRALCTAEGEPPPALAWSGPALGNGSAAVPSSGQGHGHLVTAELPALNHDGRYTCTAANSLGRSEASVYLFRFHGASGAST
Assay: ELISA, coated cynomolgus monkey Siglec-15-his
Description: […] cynomolgus monkey Siglec-15-his protein (Acrobiosystems, Cat #: SG5-C52H6) dissolved in PBS was added to an ELISA plate at 100 μL/well for coating and the plate was incubated overnight at 4° C. The ELISA plate was then blocked with PBST (PBS+0.05% Tween 20) containing 2% BSA at 200 μL/well and incubated at 37° C. for 1 h. The ELISA plate was washed 4 times with PBST. The anti-Siglec-15 antibody diluted in a gradient (5-fold dilution, starting concentration: 6.67 nM) was added to the ELISA plate at 100 µL/well and the plate was incubated at 37° C. for 1 h. The ELISA plate was washed 4 times with PBST. The goat anti-human IgG (H+L)-HRP (1:5000, Jackson, Cat #: 109-035-088) was added at 100 μL/well and the plate was incubated at 37° C. for 1 h. The ELISA plate was washed 4 times with PBST. The TMB substrate (Biopanda, Cat #: TMB-S-003) was added at 100 μL/well, and the plate was incubated at room temperature for 5 min, and then the stop buffer (Solarbio, Cat #: C1058) was added at 100 μL/well to stop the reaction.

For B1, the EC50 was 0.025 nM and 0.012 nM.

B2 and B3 are within 1.5-fold of each other in EC50: 0.09 nM for the first, 0.104 nM for the second.

B4 was tested, and the EC50 was 0.038 nM.
